Test results: the nanobody polyreactivity screen of Harvey et al. (2022)

Assay: yeast display, Sf9 membrane polyspecificity reagent, FACS + sequencing; frameworks hold sequencing errors
Method in brief: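 Galactose-induced (36–48 hours) yeast carrying a synthetic nanobody display library were exposed to 10% biotinylated, detergent-solubilized Sf9 membrane reagent at 4 °C for 1 hour. FACS followed streptavidin microbead enrichment, using low and high (top ~1%) gates for expression (anti-HA) and reagent binding (streptavidin). Colony PCR, MiSeq 2 × 250 sequencing and CDR-length filtering followed. Labels for polyreactivity reflect the gate of origin.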

Row | Sequence | polyreactivity (PSR sort gate)
1 | QVQVVESGGGLVQAGGSLRLSCAASGRIFNRNAMGWYRQAPGKERELVAAITRGGRTNYADSVKGRFRISRDNAQNTVYLQMNSLKPEDTAVYYCAAAYYGSHGRYDYWGQGTQVTVSS | high polyreactivity
2 | QVQLVESGGGLVQAGGSLRLSCAASGSTFWFNDMGWYRQAPGKEREFVAAISSIGGSTYYADSVKGRFTISRDNAKNNVNLQMNSLKPEDTAVYYCAVEVVRVYRYDYWGQGTQVTVSS | low polyreactivity
3 | PLQLVESGGGLVQAGGSLRLSCAASGRTFRATTMGWYRQAPGKERELVAAISHSGGSTYYADSVKGRFTISRDNAKNTVYLQMYSLKPEDTAVYYCATDGGSYSWASPRVDYWGQGTQVTVSS | low polyreactivity
4 | QVQLVESVGGLVQAGGSLRLSCAASGSTLSAYVMGWYRQAPGKERELVAAITRGGNTYYADSVKGRFTISRDNAKNTVYLQMNSLKPEDTAVYYCAARTYVSYCYYTLNYWGQGTQVTVSS | high polyreactivity
5 | QVQLVESGGGLVQAGGSLRLSCAASGRTFARYTMGWYSQAPVKERELVASITRGGSTYYADSVKGRFTISSDNAKNTVYLQMYSLKPEDTAVYYCNAVYIVGGDWGQGTQVTVSS | high polyreactivity
6 | QVQVVESGGGLVQAGGSLRLSCAASGRIFYVYAMGWYRQAPGKERELVAAITISGGSTYYADSVKGRFTISRDNAKNTVYLQMNSLKPEDTAVYYCATDRSSHWYDYWGQGTQVTVSS | low polyreactivity
7 | QVQLVESGGGLVQAGGSLRLSCAASGRTFLPNAMGWYRQAPGKERELVAVITSGGSTNYADSVKGRFTISRDNAKNTVYLQMKSLKPEDTAVYYCAARRWSSSQGHWGKSAGYGYWGQGTQVTVSS | low polyreactivity
8 | QVQLVESGGGLVQAGGSLRLSCAASGSIFRNYAMGWYRQAPGKERELVAAISRRGGSTYYADSVKGRFTISRDNAKNTVYLQMNSLKPEDTAVYYCKKRWSSKTVQYDYWGQGTQVTVSS | high polyreactivity
9 | QVQLVESGGGLVQAGGSLRLSCAASGFTFTDYTMGWYIQAPGTEREFVAAISYRGSNTYYADSVKGRFTISRDNAKNTVYLQMNSLKPLDTAVYYCAADSYRYKYNYWGQGTQVTVSS | high polyreactivity
10 | QVQLVESGGGLVQAGGSLRLSCAASGFIIARNAMGWYRQAPGKERELVAAISASGGRTYYADSVKGRFTISRDNAKNTVYLKKNSLKPEDTAVYYCAAAVLRYALRFDYWGQGTQVTVSS | high polyreactivity
11 | QVQLVESGGGLVQAGGSLRLSCAASGFTFHNYAMGWYRQAPGKERDFVAAITRNTASTYYADSVKGRFTISRDNAKNTVYLQMNSLKPEDTAVYYCNASRVVYRQAYLYGYDYWGQGTQVTVSS | low polyreactivity
12 | QVHLVESGGGLVQAGGSLRLSCAASGRTFVYNSMGWYRQAPGKERELVAAISSDGASTYYADSVKGRFTISRDNAKNTVYLQMNSLKPEDTAVYYCAADFSYYSYEHYYWGQGTQVTVSS | low polyreactivity
13 | QFQLVESGGGLVQAGGSHRLSCAASGRIVDYYAMGWYRQAPGKERDLVAAISTSGGSTYYADSVKGRFTISRDNAKITVYLLMNSLKPEDTAVYYCGKDITVTYPVLDYDYWGQCTQVTVSS | low polyreactivity
14 | QVQLVESGGGLVQAGGSLRLSCAASGFIFYSYAMGWYRQAPGKERELVAAISRSGGITYYADSVKGRFTISRDNAKNTVYLQMNSLKPEDTAVYYCAKVGRGVSSIKDMDSWGQGTQVTVSS | high polyreactivity
15 | QVQLVESGGGLVQAGGILRLSCAASGSTSYIYAMGWYRQAPGKERELVAAITWRTGRTYYADSVKGRFTISRDNAKNTVYLQMNSLKPEDTAVYYCAATYYLSFAVKMYYWGQGTQVTVSS | high polyreactivity
16 | QVQLVESGGGLVQAGGSLRLSCAASGYIFGYYTMGWYRQAPGKERELVATIRSGGSTYYADSVKGRFTISRDNAKNTVYLQMNSLKPEDTAVYYWAKRVRRISEYGYWGQGTQVTVSS | high polyreactivity

Row | Sequence | polyreactivity (PSR sort gate)
17 | QVQLVESGGGLVQAGGSLRLSCAASGFIFNVYAMGWYRQAPGKERELVAAISQRGGRTYYADSVKGRFTISRDNAKNTVYLQMNSLKPEDTAVYYCKLFYPKHGYWGQGTQVTVSS | high polyreactivity
18 | QVQLEESGGGLVQAGGSLRLSCAASGSTIHDNDMGWYRQAPGKERELVAAISWSGGSTTYADSVKGRFTISRDNAKNTVYLQMNSLKPEDTAVYYCAADWYYWGFIFDYWGQGTQVTVSS | high polyreactivity
19 | QVQLVESGGGLVQAGGSLRLSCAASGFIFYNAMGWYRQAPGKESELVAAITGSGGRTYYADSVKGRFTISRDNAKNTVYLQMNSLKPEDTAVYYCAADGYVRTVTSGWALRMGYWGQGTQVTVSS | high polyreactivity
20 | QVQLVESGGGLVQAGGSLRLSCAASGSIFGRYAMGWYRQAPGKERELVAAISRTGVSTYYADSVKGRFTISRDNAKNTVYLQMKSLKTEDSAVYYCKAVRLSWQYTYYYWGQGTQVTVSS | high polyreactivity
21 | QVQLVESGGGLVQAGGSLRLRCAASGITFSRNAMGAYRQAPGKERELVATITSGGSTNYADSVKGRFTISRDNAKNTVYLQMNSLKPEDTAVYYCNADWNTFISGRSYDYWGQGTQVTVSS | low polyreactivity
22 | QVQLVESGAGLFQAGGSLRLSCAASGSTFVSYAMGWYRQAPGKEREFVAAITWSGGSTYYADSVKGRFTISRDNAKNTVYLQMNSLKPEDTAVYYCARPYRGSPRYYYWGQGTQVTVSS | high polyreactivity
23 | QVQLVESGGGLVQAGGSLRLSCSASGSTFFWNAMGWYRQAPGKESEFVAAISSSSGSTYYADSVKGRFTISRDNAKNTVYLQMNSLKPEDTAVYYCAARPWGNVFDSAVSYDYWGQGTQVTVSS | low polyreactivity
24 | QVQLVESGGGLVQAGGSLRLSSAASGSIFGSNAMGWSRQAPGKERELVATITTSGGITYYADSVKGRFTISRDNAKNTVYLQMTSLKPEDTAVYYCAAAEGGGLVTYDYWGQGTQVTVSS | low polyreactivity
25 | QVQLEESGGGLVQAGGSLRLSCAASGFIFGLNAMGWYRQAPGKERELVAGIRSGSSTNYADSVKGRFTISRDNAKNTVYLQMNSLKPEDTAVYYCATEGYWVYGFDDEYWGQGTQVTVSS | low polyreactivity
26 | QVQLVESGGGLVQAGGSLRLSCAASGFTFTKYAMGWYRQAPGKERELVAAISGRGGSTYYADSVKGRFTISRDNAKNTVYLQMNSLKPEDTAVYYCAKYRYTVAGYNYWGQGTQVTVSS | high polyreactivity
27 | QVQRVESGGGLVQAGGSLRLSCAASGFTFRAYTMGWYRQAPGKDRELVAAITYSGGRRYYADSVKGRFTISRDNAKTTVYLQMNSLNPEDTAVYYCAKRGWALSEYYYWGQGTQVTVSS | high polyreactivity
28 | QVQFVESGGALVQAGGSLRLSCAASGSTFQGYAMGWYRQAPGKETELVAAISRSGGRTYYADSVTGRFTISRDNAKNTVYLQMISLKPEDTAVYYCAAEGHELTDGDSWGQGTQVTVSS | low polyreactivity
29 | QVQLVETGGGLVQAGGSLRLSCAASGLTFKYYTKGWYRQAPGKERELVASISWSGGSTYYADSVKGRFTISRDNAKNTVYLQMNSLKPEDTAVYYCARRGYWGPGALGGGGYYWGQGTQVTVSS | high polyreactivity
30 | QVQLVESGGGLVQAGGSLRLSCAASGSILDNYGMGWYRQAPGKERELVASISGGAGSPNYADSVKGRFTISRDNAKNTVYLQMYSLKPEVTAVYDCNADQIFGPALNLWKLDYWGQGNQVTVSS | low polyreactivity
31 | IIQAGGSLRLSCAASGRTFSGYARGWYRQAPGKERELIADITSGGSTYYADSVKGRFTISRDNAKNTVYLQMNSLKPEDTAVYYCSRDDRLAGDYWGQGTQVTVSS | low polyreactivity
32 | QVQLGESGGGLVQAGGSLRLSCAASGSIFWLYAMGWYRQAPGKERELVAAIDSGDSRKYADSVKGRFTISRDNAKNTVYLQMNSLTPEDTAVYYCNASRRYHVRAPYDYWGQGTLVTVSS | low polyreactivity
